Experiment [1] has as its target envelope glycoprotein of the R5 isolate YU2, on virus (HIV-1 (YU2 isolate)) (UniProt P35961). The experiment can be described thus: cell-based or functional assay.
Experiment [2] has as its target envelope glycoprotein of the R5X4 isolate 89.6, on virus (HIV-1 (89.6 isolate)) (UniProt Q73372). The experiment is described as follows: cell-based or functional assay.

Chain of UniProt P35961 (P35961 32-843): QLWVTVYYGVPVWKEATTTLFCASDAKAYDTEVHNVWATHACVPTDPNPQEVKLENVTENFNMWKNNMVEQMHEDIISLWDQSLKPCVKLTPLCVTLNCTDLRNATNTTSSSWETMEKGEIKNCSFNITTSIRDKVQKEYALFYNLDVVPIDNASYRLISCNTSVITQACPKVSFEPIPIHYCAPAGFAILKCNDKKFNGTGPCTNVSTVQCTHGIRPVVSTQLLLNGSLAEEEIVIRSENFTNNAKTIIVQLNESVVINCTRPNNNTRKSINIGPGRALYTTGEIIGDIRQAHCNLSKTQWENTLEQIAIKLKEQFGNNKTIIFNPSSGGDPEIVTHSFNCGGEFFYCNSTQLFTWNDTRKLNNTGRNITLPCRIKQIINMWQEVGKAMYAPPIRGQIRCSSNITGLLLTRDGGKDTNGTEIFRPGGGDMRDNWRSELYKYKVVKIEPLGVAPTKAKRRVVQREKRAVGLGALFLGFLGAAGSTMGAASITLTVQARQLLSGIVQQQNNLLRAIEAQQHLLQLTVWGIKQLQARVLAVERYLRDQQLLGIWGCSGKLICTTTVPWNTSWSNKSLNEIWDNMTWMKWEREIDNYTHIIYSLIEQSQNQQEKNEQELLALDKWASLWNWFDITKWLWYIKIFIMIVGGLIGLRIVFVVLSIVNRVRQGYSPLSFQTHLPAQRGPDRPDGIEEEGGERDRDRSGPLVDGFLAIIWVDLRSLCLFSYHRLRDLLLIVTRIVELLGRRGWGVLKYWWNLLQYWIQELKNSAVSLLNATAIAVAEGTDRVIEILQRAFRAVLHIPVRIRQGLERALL

In experiment [1], “eCD4-Ig (from UniProt P01730 26-203) (Fc fusion)” returned an IC50 difference between CD4-Ig and eCD4-Ig (fold) of 3 fold; a neutralization of GFP-expressing HIV-1, IC50 of 2 nM. In experiment [2], the IC50 difference between CD4-Ig and eCD4-Ig (fold) turned out to be 50 fold; the neutralization of GFP-expressing HIV-1, IC50 came to 0.6 nM.

(Values after patent US20110305670A1.)
